# Measured values published in publication PMC11399405.
# B1: IGR1729/1728 and flanking RNA (55 nt) (ssRNA)
# RNA: GCUAGUGCAGAUGCUCCAGUUAAAAAAGAGUAGGAGGUAGAGGAAAUGUCUCAAU
# How the values were obtained:
# SPD_1777 = SPD_1777 (Streptococcus pneumoniae D39, UniProt A0A0H2ZNW3 1-317); assay: EMSA
# SPD_1558 = SPD_1558 (Streptococcus pneumoniae D39, UniProt A0A0H2ZMV6 1-103); assay: EMSA
binder,measurement,setting,value
B1,binding result,SPD_1777,binds
same,binding result,SPD_1558,binds
